According to the supplement of paper PMC10724198:
± gives the standard deviation of the averaged measurements.

Legend:
Saccharomyces cerevisiae [1] = experiment: protein stability index of tFT-peptide fusion (C-terminal peptide) (PSI (0-1 scale)); higher = more stable (slower turnover)
Experimental: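 MPS profiling in S. cerevisiae of the tFT-X12 degron library: putative degron peptides plus stable controls, 12 aa, fused to the C-terminus of a sfGFP-mCherry timer. Cells are FACS-sorted into 8 mCherry/sfGFP bins and deep-sequenced. PSI runs from 0 (unstable) to 1 (stable). Backgrounds are wild type, das1Δ and doa10Δ at 30 °C, and wild type, das1Δ, cdc34-1 and cdc53-1 at 37 °C; 2-3 technical replicates each.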

Saccharomyces cerevisiae [2] = experiment: as above; settings: genetic background: wild type; temperature: 30 C
[3] = genetic background: cdc34-1, temperature: 37 C
[4] = genetic background: cdc53-1, temperature: 37 C
[5] = genetic background: das1 deletion, temperature: 30 C
[6] = genetic background: das1 deletion, temperature: 37 C
[7] = genetic background: doa10 deletion, temperature: 30 C
[8] = genetic background: wild type, temperature: 30 C
[9] = genetic background: wild type, temperature: 37 C
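Further: PSI is a weighted mean of sequencing reads over stability bins, variants kept only with over 10 reads, mCherry proximal and sfGFP distal, peptide attached via GGGS linker.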

Sequence | protein stability index (Saccharomyces cerevisiae [1]; [3]) | protein stability index (Saccharomyces cerevisiae [1]; [4]) | protein stability index (Saccharomyces cerevisiae [1]; [5]) | protein stability index (Saccharomyces cerevisiae [1]; [6]) | protein stability index (Saccharomyces cerevisiae [1]; [7]) | protein stability index (Saccharomyces cerevisiae [1]; [8]) | protein stability index (Saccharomyces cerevisiae [1]; [9]) | protein stability index (Saccharomyces cerevisiae [2])
RFLPYLPTPLSP | 0.664 ± 0.026 | 0.7203 ± 0.0043 | 0.506 ± 0.016 | 0.5974 ± 0.0048 | 0.502 ± 0.016 | 0.513 ± 0.014 | 0.568 ± 0.011 | 0.52 ± 0.031
RGAVLLPSLWVV | 0.659 ± 0.025 | 0.7044 ± 0.0028 | 0.577 ± 0.027 | 0.7355 ± 0.0068 | 0.356 ± 0.033 | 0.381 ± 0.022 | 0.551 ± 0.0061 | 0.483 ± 0.061
RGCLVHSGFFIV | 0.65 ± 0.034 | 0.683 ± 0.011 | 0.62 ± 0.018 | 0.6898 ± 0.0051 | 0.212 ± 0.0034 | 0.239 ± 0.027 | 0.4987 ± 0.0029 | 0.401 ± 0.067
RGGVLYVSIRCK | 0.282 ± 0.019 | 0.335 ± 0.0034 | 0.228 ± 0.032 | 0.397 ± 0.0054 | 0.186 ± 0.015 | 0.233 ± 0.037 | 0.386 ± 0.023 | 0.341 ± 0.053
RIHRRLIKNKRV | 0.649 ± 0.021 | 0.7 ± 0.02 | 0.71 ± 0.036 | 0.739 ± 0.041 | 0.155 ± 0.028 | 0.156 ± 0.038 | 0.377 ± 0.023 | 0.162 ± 0.086
RIVSGVVLLVFV | 0.404 ± 0.0079 | 0.469 ± 0.0074 | 0.237 ± 0.019 | 0.5234 ± 0.0034 | 0.206 ± 0.015 | 0.226 ± 0.042 | 0.527 ± 0.034 | 0.336 ± 0.035
RKGQNKKRNKIY | 0.7504 ± 0.0028 | 0.767 ± 0.019 | 0.659 ± 0.008 | 0.7331 ± 0.0033 | 0.203 ± 0.028 | 0.295 ± 0.035 | 0.575 ± 0.044 | 0.399 ± 0.02
RKWLFFRSWRYV | 0.476 ± 0.047 | 0.69 ± 0.012 | 0.626 ± 0.028 | 0.7486 ± 0.0024 | 0.0555 ± 0.024 | 0.0663 ± 0.011 | 0.0912 ± 0.024 | 0.134 ± 0.002
RLFIIYLLNIQG | 0.37 ± 0.052 | 0.5289 ± 0.0034 | 0.311 ± 0.022 | 0.544 ± 0.022 | 0.263 ± 0.0062 | 0.305 ± 0.047 | 0.515 ± 0.022 | 0.407 ± 0.019
RLFSPPVLATPS | 0.654 ± 0.012 | 0.679 ± 0.025 | 0.525 ± 0.031 | 0.696 ± 0.021 | 0.51908 ± 0.00034 | 0.534 ± 0.019 | 0.6477 ± 0.0014 | 0.0111 ± 0.016
RLIAVAGVVVVA | 0.541 ± 0.032 | 0.5509 ± 0.0042 | 0.425 ± 0.025 | 0.5685 ± 0.0055 | 0.3997 ± 0.00095 | 0.431 ± 0.021 | 0.547 ± 0.0055 | 0.477 ± 0.054
RLLSIFKILHVG | 0.526 ± 0.0063 | 0.6593 ± 0.0037 | 0.638 ± 0.013 | 0.705 ± 0.014 | 0.0881 ± 0.028 | 0.0968 ± 0.0051 | 0.1507 ± 0.00028 | 0.188 ± 0.036
RLRHPPRLSTLC | 0.635 ± 0.025 | 0.743 ± 0.00093 | 0.629 ± 0.029 | 0.73873 ± 0.00026 | 0.306 ± 0.018 | 0.338 ± 0.023 | 0.594 ± 0.069 | 0.463 ± 0.0095
RLSTPFTVNHFI | 0.613 ± 0.031 | 0.732 ± 0.035 | 0.696 ± 0.031 | 0.766 ± 0.0088 | 0.155 ± 0.04 | 0.168 ± 0.044 | 0.374 ± 0.044 | 0.312 ± 0.099
RLVPFMAVRVLF | 0.571 ± 0.034 | 0.6204 ± 0.0016 | 0.517 ± 0.013 | 0.6492 ± 0.0023 | 0.413 ± 0.025 | 0.41 ± 0.018 | 0.5719 ± 0.0024 | 0.487 ± 0.044
RRVRVVCVIVAA | 0.286 ± 0.0078 | 0.373 ± 0.009 | 0.238 ± 0.041 | 0.4735 ± 0.0028 | 0.189 ± 0.0071 | 0.221 ± 0.03 | 0.443 ± 0.025 | 0.373 ± 0.071
RSFNVGLELLVW | 0.382 ± 0.026 | 0.395 ± 0.035 | 0.295 ± 0.05 | 0.449 ± 0.0063 | 0.259 ± 0.0039 | 0.297 ± 0.046 | 0.4159 ± 0.001 | 0.398 ± 0.0062
RTWFTYMSIPVW | 0.196 ± 0.012 | 0.204 ± 0.069 | 0.234 ± 0.026 | 0.341 ± 0.01 | 0.189 ± 0.023 | 0.237 ± 0.026 | 0.311 ± 0.0057 | 0.343 ± 0.024
RVFGWIEVEVEG | 0.5179 ± 0.001 | 0.565 ± 0.019 | 0.403 ± 0.023 | 0.5679 ± 0.0026 | 0.346 ± 0.018 | 0.386 ± 0.054 | 0.584 ± 0.007 | 0.489 ± 0.079
RVFRLDRRLQVV | 0.55 ± 0.02 | 0.633 ± 0.041 | 0.509 ± 0.018 | 0.638 ± 0.012 | 0.128 ± 0.012 | 0.154 ± 0.018 | 0.213 ± 0.005 | 0.3 ± 0.0059
RVGSSLIVVYCV | 0.452 ± 0.024 | 0.461 ± 0.017 | 0.264 ± 0.034 | 0.502 ± 0.0096 | 0.207 ± 0.0045 | 0.238 ± 0.023 | 0.427 ± 0.018 | 0.337 ± 0.022
RVLCLVSSLTLF | 0.549 ± 0.013 | 0.592 ± 0.0061 | 0.413 ± 0.027 | 0.612 ± 0.017 | 0.352 ± 0.0058 | 0.388 ± 0.026 | 0.5961 ± 0.00089 | 0.441 ± 0.0073
RWTKMNNLIIEF | 0.693 ± 0.0083 | 0.744 ± 0.0087 | 0.667 ± 0.013 | 0.742 ± 0.042 | 0.678 ± 0.012 | 0.648 ± 0.025 | 0.699 ± 0.026 | 0.7466 ± 0.0064
RWVFAGVGLFVG | 0.691 ± 0.071 | 0.732 ± 0.016 | 0.605 ± 0.0071 | 0.7241 ± 0.0046 | 0.353 ± 0.043 | 0.376 ± 0.025 | 0.598 ± 0.024 | 0.502 ± 0.028
SCFDRQIFVPVC | 0.358 ± 0.0078 | 0.3925 ± 0.001 | 0.302 ± 0.033 | 0.461 ± 0.013 | 0.274 ± 0.0059 | 0.308 ± 0.032 | 0.4173 ± 0.0038 | 0.442 ± 0.013
SDLQVMKLRSVC | 0.717 ± 0.048 | 0.742 ± 0.045 | 0.619 ± 0.025 | 0.714 ± 0.026 | 0.185 ± 0.007 | 0.191 ± 0.013 | 0.456 ± 0.021 | 0.398 ± 0.067
SFFYFVFYYLSF | 0.161 ± 0.042 | 0.17 ± 0.019 | 0.259 ± 0.015 | 0.364 ± 0.017 | 0.253 ± 0.016 | 0.204 ± 0.033 | 0.308 ± 0.01 | 0.2916 ± 0.0027
SFIFFVSCFFIF | 0.274 ± 0.043 | 0.378 ± 0.011 | 0.294 ± 0.029 | 0.451 ± 0.024 | 0.263 ± 0.0092 | 0.266 ± 0.017 | 0.416 ± 0.016 | 0.3325 ± 0.0024
SFLRVRSLISCS | 0.252 ± 0.026 | 0.257 ± 0.035 | 0.223 ± 0.025 | 0.404 ± 0.021 | 0.168 ± 0.0032 | 0.204 ± 0.026 | 0.348 ± 0.013 | 0.294 ± 0.022
SFSRLWSLFRCL | 0.462 ± 0.041 | 0.68 ± 0.026 | 0.682 ± 0.014 | 0.752 ± 0.014 | 0.15 ± 0.0057 | 0.13 ± 0.036 | 0.31 ± 0.038 | 0.244 ± 0.00058
